Series [1] can be described thus: Toxicity study of LGI1 peptide mimetic in vivo. The note with it: preliminary in vivo studies; FIG. 1F.
Method: LGI1 mimetic was delivered by daily intraperitoneal injection to C57/bl6 mice at high (100 ug/kg/day), medium (10 ug/kg/day) and low dose (1 ug/kg/day) for 30 days.
The test system of another series is MCF7 cells. The experiment in a line: Motility assay, MCF7 cells. Type of series: cell-based. As to conditions: 5 nM, FIG. 1C. An excerpt: (§1) • For cell culture use Minimum Essential Medium-Eagle (EMEM; BioWhittaker, Product No. 12-611Q) containing the following supplements (=EMEM Complete Medium): 10% fetal calf serum (BioWhittaker, Product No. 14-503F), 1X penicillin/streptomycin solution (BioWhittaker, Product No. 17-602E), 1% L-glutamine (BioWhittaker, Product No. 17-605E), 1% non-essential amino acids (BioWhittaker, Product No. 13-114E) and 1% sodium pyruvate (BioWhittaker, Product No. 13-115E). • Split cells when they reach 60-80% confluency (every 2-3 days), diluting 1:5 to 1:10. • For cell motility, harvest cells with trypsin-versene mixture (BioWhittaker, Product No. 17-161F) and dilute into EMEM Complete Medium (warmed to 37° C.). For cells cultured in a T-75 flask, wash cells with 3 ml of trypsin. Add another 3 ml of trypsin and aspirate 2 ml. Allow cells to detach by incubating flask at 37° C. for 5 minutes and then add 9 ml of EMEM Complete Medium and centrifuge cells at 400×g for 5 minutes at room temperature. • Wash 3× with Serum-Free Culture Medium (warmed to 37° C.) (see Procedure section). • Adjust cell density to 10^4 cells/ml in EMEM serum-free medium and add 50 μl of the cell suspension to each well of a 96-well microplate (=500 cells/well). Cell motility is stimulated with 50 μl of 10% fetal bovine serum (FBS) diluted in EMEM serum-free medium. […]

The test system of another series is LetR cells. The experiment in a line: Cellular differentiation in 3D culture, LetR cells. Type of series: cell-based. As to conditions: LetR cells treated with LGI1; n=3; FIG. 1D.
Series [2] has as its system endocrine resistant LetR cells. The experiment in a line: Xenograft model of endocrine resistance. The note with it: FIG. 1G. Type of series: in vivo. An excerpt:
As ADAM22 expression has previously only been described in the central nervous system, a therapeutic directed against systemic ADAM22 has the potential to be highly specific for the breast and have low toxicity. The neuronal protein, LGI1 serves as a specific extracellular ligand for ADAM22^4. […] The Applicant has shown that treatment with recombinant LGI1 reduced cellular migration and restored differentiation in endocrine resistant cells in a similar manner to that observed with knockdown of ADAM22 (FIGS. 1C and D). A 22 amino acid peptide mimetic of LGI1 with a simple hairpin structure against the active binding domain of ADAM22 has been developed. […] In vivo studies have been undertaken to assess the efficacy of the LGI1 mimetic in reducing breast cancer burden in endocrine resistant breast cancer. […] This has significant advantage over previous methods described of detecting metastatic disease^9.

The test system of series [3] is endocrine resistant LY2 cells. The experiment in a line: Motility assay, LY2 cells. The note with it: 5 nM, FIG. 1C/1E. Type of series: cell-based.
Source text: as §1

The test system of series [4] is endocrine resistant LetR cells. The experiment in a line: Motility assay, LetR cells. As to conditions: 5 nM, FIG. 1C/1E. The format is cell-based.
Source text: as §1

Where [5] appears, read: LetR cells in vivo, daily injection.

Peptide text beside a SMILES is read from it.

Consider `CC[C@H](C)[C@H](NC(=O)[C@H](Cc1ccccc1)NC(=O)[C@H](CCCNC(=N)N)NC(=O)[C@@H](NC(=O)[C@H](CC(C)C)NC(=O)[C@H](CS)NC(=O)[C@@H](NC(=O)[C@H](Cc1ccc(O)cc1)NC(=O)[C@@H](NC(=O)[C@H](CC(=O)O)NC(=O)CNC(=O)[C@@H](N)CCCCN)C(C)C)[C@@H](C)CC)[C@@H](C)O)C(=O)NCC(=O)N[C@@H](CC(=O)O)C(=O)N[C@@H](CO)C(=O)N[C@@H](CCCCN)C(=O)N[C@H](C(=O)N[C@@H](CCSC)C(=O)N[C@@H](CCCCN)C(=O)N[C@@H](Cc1c[nH]c2ccccc12)C(=O)NCC(=O)NCC(=O)O)C(C)C` [LGI1 mimetic] (H-KGDVYICLTRFIGDSKVMKWGG-OH), for which, in series [1], the tolerability / toxicity result is “well tolerated with no toxicity observed”.

B1: LGI1: neuronal protein and known ADAM22 ligand LGI1 (SEQ ID NO: 1), GENBANK AAQ89244 (protein, listed as Homo sapiens)
chain: MESERSKRMGNACIPLKRIAYFLCLLSALLLTEGKKPAKPKCPAVCTCTKDNALCENARSIPRTVPPDVISLSFVRSGFTEISEGSFLFTPSLQLLLFTSNSFDVISDDAFIGLPHLEYLFIENNNIKSISRHTFRGLKSLIHLSLANNNLQTLPKDIFKGLDSLTNVDLRGNSFNCDCKLKWLVEWLGHTNATVEDIYCEGPPEYKKRKINSLSSKDFDCIITEFAKSQDLPYQSLSIDTFSYLNDEYVVIAQPFTGKCIFLEWDHVEKTFRNYDNITGTSTVVCKPIVIETQLYVIVAQLFGGSHIYKRDSFANKFIKIQDIEILKIRKPNDIETFKIENNWYFVVADSSKAGFTTIYKWNGNGFYSHQSLHAWYRDTDVEYLEIVRTPQTLRTPHLILSSSSQRPVIYQWNKATQLFTNQTDIPNMEDVYAVKHFSVKGDVYICLTRFIGDSKVMKWGGSSFQDIQRMPSRGSMVFQPLQINNYQYAILGSDYSFTQVYNWDAEKAKFVKFQELNVQAPRSFTHVSINKRNFLFASSFKGNTQIYKHVIVDLSA
modifications: (1)..(557) LGI1 protein
As for B1, the cellular migration result with MCF7 cells is reported as “no discernable effect”; in series [3], “significantly reduced cellular migration”; in series [4] it was “significantly reduced cellular migration”. The cellular differentiation entry with LetR cells is recorded as “restored cellular differentiation”. For the same molecule, in series [2] (setting [5]), the “cell proliferation in vivo” value is reported as “inhibits”. Besides, in series [2] (setting [5]), the metastasis in vivo result is reported as “inhibits”. For the same molecule, the tumour burden entry in series [2] (xenograft model of endocrine resistance) was “significantly reduced tumour burden”.
